Measured values taken from patent US20220049021A1.

biological target: T1, human FLT3 on AML5 cells (human) (UniProt P36888); assay: cell-based or functional assay
T1 sequence (looked up): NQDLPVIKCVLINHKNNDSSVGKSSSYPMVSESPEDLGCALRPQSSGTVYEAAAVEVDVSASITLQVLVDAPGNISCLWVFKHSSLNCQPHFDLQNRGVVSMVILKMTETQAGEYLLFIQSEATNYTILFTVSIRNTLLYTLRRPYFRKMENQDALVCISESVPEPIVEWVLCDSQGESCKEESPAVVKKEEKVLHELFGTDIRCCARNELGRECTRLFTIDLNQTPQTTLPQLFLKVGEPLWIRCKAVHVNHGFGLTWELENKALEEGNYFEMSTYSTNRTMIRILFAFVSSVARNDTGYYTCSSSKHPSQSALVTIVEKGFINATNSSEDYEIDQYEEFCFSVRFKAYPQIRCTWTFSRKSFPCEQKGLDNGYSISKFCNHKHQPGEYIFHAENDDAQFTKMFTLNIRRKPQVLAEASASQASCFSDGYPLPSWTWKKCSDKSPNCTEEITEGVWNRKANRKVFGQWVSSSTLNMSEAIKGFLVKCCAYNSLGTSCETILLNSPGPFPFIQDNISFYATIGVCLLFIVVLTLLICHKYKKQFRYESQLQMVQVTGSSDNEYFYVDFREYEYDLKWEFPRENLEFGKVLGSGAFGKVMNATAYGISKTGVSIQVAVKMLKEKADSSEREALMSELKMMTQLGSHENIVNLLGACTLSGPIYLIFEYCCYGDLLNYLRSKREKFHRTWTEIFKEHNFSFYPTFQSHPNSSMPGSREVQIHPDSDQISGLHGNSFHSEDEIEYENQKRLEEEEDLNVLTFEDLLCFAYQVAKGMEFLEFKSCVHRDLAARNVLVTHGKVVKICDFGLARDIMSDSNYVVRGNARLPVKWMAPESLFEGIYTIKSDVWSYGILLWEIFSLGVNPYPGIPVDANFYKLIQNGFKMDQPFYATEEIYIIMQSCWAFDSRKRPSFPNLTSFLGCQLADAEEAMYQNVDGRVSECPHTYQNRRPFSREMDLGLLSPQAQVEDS

human FLT3-ligand (H8Y) human hingeless IgG1 fusion protein (SEQ ID NO:22) (Fc fusion), sequence (chain): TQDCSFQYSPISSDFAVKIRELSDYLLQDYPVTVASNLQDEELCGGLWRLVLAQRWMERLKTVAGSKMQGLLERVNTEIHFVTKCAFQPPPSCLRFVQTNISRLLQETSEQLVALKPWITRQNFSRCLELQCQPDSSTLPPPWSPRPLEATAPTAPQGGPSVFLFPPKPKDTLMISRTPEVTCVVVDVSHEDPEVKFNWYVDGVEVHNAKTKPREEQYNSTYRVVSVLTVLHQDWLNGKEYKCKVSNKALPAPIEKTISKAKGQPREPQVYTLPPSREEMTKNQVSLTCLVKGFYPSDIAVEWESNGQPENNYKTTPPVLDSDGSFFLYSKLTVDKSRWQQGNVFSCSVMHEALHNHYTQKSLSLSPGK
human FLT3-ligand human IgG1 fusion protein (SEQ ID NO:21) (Fc fusion), sequence (chain): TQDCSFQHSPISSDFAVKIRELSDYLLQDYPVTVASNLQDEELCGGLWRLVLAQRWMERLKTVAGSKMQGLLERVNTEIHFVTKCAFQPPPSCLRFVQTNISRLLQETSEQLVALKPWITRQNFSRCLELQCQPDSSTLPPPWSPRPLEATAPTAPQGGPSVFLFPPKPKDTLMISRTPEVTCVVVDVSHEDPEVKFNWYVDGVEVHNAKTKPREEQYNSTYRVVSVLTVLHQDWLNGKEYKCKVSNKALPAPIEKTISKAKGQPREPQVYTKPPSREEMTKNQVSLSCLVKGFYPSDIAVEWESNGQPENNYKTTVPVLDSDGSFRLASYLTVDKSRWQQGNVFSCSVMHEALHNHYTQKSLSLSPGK

Row | EC50 (nM), Inducing Proliferation of AML5 Cells [nM] | potency in AML5 proliferation against SEQ ID NO:1 [fold] | Substance
1 | 0.014 | 2.5 | human FLT3-ligand (H8Y) human hingeless IgG1 fusion protein (SEQ ID NO:22) (Fc fusion)
2 | 0.013 | 2.5 | human FLT3-ligand (H8Y+K84E) human hingeless IgG1 fusion protein (SEQ ID NO:24) (Fc fusion)
3 | 0.013 | 2.5 | human FLT3-ligand (K84E) human hingeless IgG1 fusion protein (SEQ ID NO:23) (Fc fusion)
4 | 0.035 | – | human FLT3-ligand human IgG1 fusion protein (SEQ ID NO:21) (Fc fusion)
